Source: article PMC3310976 (Chromosoma, 2011)

What was measured:
[1] = target: T1, His-tagged (6x) Drosophila histone H1 fusion protein (Drosophila, UniProt P02255 1-256); experiment: pull-down
T1 sequence (looked up): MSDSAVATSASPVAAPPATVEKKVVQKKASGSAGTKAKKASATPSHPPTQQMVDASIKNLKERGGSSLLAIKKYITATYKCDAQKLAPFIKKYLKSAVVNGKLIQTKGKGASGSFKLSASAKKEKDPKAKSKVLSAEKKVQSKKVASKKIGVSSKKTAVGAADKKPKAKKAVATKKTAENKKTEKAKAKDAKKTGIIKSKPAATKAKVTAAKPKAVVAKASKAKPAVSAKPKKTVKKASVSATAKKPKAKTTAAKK

[2] = target: T2, full-length Drosophila histone H1 fusion protein with a maltose binding protein-tag (Drosophila, UniProt P02255 1-256); experiment: far-Western, overlay or dot blot
T2 sequence (looked up): T1 sequence (looked up)

binding result [1]: binds
binding result [2]: binds
B1: GST-tagged Chromator chromodomain (219-277) (domain or fragment, Drosophila, UniProt Q86BS3 219-277, looked up)
chain: TEEPVEKIVAKRFNPRRKTHEYLVKWVDRSHHENTWEVMANLERVPYFLQMFEKQLARQ
